According to patent publication US20240173426A1 (Regeneron, published 2024):

T1: murine FGFR3b expressed with a C-terminal myc-myc-hexahistidine tag (mFGFR3b.mmH) (mouse)
T1 construct: monomeric; also called REGN3215; monomeric murine FGFR3b
T1 chain: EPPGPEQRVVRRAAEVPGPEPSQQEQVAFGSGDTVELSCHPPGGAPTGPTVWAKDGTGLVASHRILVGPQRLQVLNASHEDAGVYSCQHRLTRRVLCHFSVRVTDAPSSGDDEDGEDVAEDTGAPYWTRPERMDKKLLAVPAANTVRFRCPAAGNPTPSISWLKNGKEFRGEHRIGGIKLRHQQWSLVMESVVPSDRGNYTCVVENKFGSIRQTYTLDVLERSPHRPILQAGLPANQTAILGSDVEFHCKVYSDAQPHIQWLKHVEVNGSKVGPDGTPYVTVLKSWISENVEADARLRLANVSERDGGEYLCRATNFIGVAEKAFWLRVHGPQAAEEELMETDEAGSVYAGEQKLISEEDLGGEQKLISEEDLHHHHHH

T2: human FGFR3b expressed with a C-terminal myc-myc-hexahistidine tag (hFGFR3b.mmH) (human)
T2 construct: monomeric; also called REGN3152; monomeric human FGFR3b
T2 chain: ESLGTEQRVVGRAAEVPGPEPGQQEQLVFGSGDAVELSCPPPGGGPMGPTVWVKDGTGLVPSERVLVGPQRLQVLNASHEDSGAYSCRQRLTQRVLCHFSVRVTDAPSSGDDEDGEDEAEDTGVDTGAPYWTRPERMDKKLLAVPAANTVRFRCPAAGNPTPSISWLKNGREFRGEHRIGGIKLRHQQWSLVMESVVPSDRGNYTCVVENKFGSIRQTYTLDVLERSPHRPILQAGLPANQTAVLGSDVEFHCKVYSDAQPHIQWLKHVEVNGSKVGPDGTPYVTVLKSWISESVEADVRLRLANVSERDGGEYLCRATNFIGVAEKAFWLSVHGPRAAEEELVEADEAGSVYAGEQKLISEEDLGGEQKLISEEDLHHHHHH

B1: hFGFR3c-hFc (Fc fusion, human, UniProt P22607 23-375, looked up)
chain: ESLGTEQRVVGRAAEVPGPEPGQQEQLVFGSGDAVELSCPPPGGGPMGPTVWVKDGTGLVPSERVLVGPQRLQVLNASHEDSGAYSCRQRLTQRVLCHFSVRVTDAPSSGDDEDGEDEAEDTGVDTGAPYWTRPERMDKKLLAVPAANTVRFRCPAAGNPTPSISWLKNGREFRGEHRIGGIKLRHQQWSLVMESVVPSDRGNYTCVVENKFGSIRQTYTLDVLERSPHRPILQAGLPANQTAVLGSDVEFHCKVYSDAQPHIQWLKHVEVNGSKVGPDGTPYVTVLKTAGANTTDKELEVLSLHNVTFEDAGEYTCLAGNSIGFSHHSAWLVVLPAEEELVEADEAGSVYAG
notes: range 23-375; Bought (R&D Systems); also called human FGFR3c extracellular domain with human IgG1 Fc; R&D Systems 766-FR-050; not shown: Fc portion of human IgG1 at the C-terminus, amino acids Pro100-Lys330
B2: human FGFR3b expressed with a C-terminal murine Fc tag (hFGFR3b.mFc) (Fc fusion)
chain: ESLGTEQRVVGRAAEVPGPEPGQQEQLVFGSGDAVELSCPPPGGGPMGPTVWVKDGTGLVPSERVLVGPQRLQVLNASHEDSGAYSCRQRLTQRVLCHFSVRVTDAPSSGDDEDGEDEAEDTGVDTGAPYWTRPERMDKKLLAVPAANTVRFRCPAAGNPTPSISWLKNGREFRGEHRIGGIKLRHQQWSLVMESVVPSDRGNYTCVVENKFGSIRQTYTLDVLERSPHRPILQAGLPANQTAVLGSDVEFHCKVYSDAQPHIQWLKHVEVNGSKVGPDGTPYVTVLKSWISESVEADVRLRLANVSERDGGEYLCRATNFIGVAEKAFWLSVHGPRAAEEELVEADEAGSVYAGEPRGPTIKPCPPCKCPAPNLLGGPSVFIFPPKIKDVLMISLSPIVTCVVVDVSEDDPDVQISWFVNNVEVHTAQTQTHREDYNSTLRVVSALPIQHQDWMSGKEFKCKVNNKDLPAPIERTISKPKGSVRAPQVYVLPPPEEEMTKKQVTLTCMVTDFMPEDIYVEWTNNGKTELNYKNTEPVLDSDGSYFMYSKLRVEKKNWVERNSYSCSVVHEGLHNHHTTKSFSRTPGK
notes: called dimeric; also called REGN3153; dimeric human FGFR3b
B3: H4H30093P2 (antibody, human IgG4 S228P, kappa, V domains shown)
VH: QVQLVESGGGLVKPGGSLRLSCAASGFTFNDYPMSWIRQAPGKGLEWVSYITSSSGSTIYYADSVKGRFTISRDNAKNSLYLQMNSLRAEDTAVYYCAREVVVATIGGYYGMDVWGQGTTVTVSS
VL: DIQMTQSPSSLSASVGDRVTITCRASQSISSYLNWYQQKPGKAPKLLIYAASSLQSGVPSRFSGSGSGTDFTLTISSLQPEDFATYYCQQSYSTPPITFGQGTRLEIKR

What was measured:
[1] = molecular target: T3, human fibroblast growth factor acidic (hFGF acidic) (human, UniProt P05230 2-155, limits assumed); test: ELISA, receptor-Fc on plate-coated hFGF acidic with heparin; fixed concentration said to be chosen near the EC50 of this binding
T3 construct: Bought; coated on the plate with heparin; also called FGF1 acidic

[2] = molecular target: T4, human fibroblast growth factor basic (hFGF basic) (human, UniProt P09038 144-288); test: ELISA, receptor-Fc on plate-coated hFGF basic with heparin; fixed concentration said to be chosen near the EC50 of this binding
T4 construct: Bought; also called Biolegend 571508

[3] = molecular target: T1, murine FGFR3b expressed with a …; test: SPR (Biacore), captured mAb, 25 C
Method: (§1) The CM5 Biacore sensor surface was derivatized by amine coupling with a monoclonal mouse anti-human Fc monoclonal antibody (REGN2567). All Biacore binding studies were performed in a buffer composed of 0.01M HEPES pH 7.4, 0.15 M NaCl, 3 mM EDTA, 0.05% v/v Surfactant P20 (HBS-EP running buffer). […] Antibody-reagent association was monitored for 5 minutes while dissociation in HBS-EP running buffer was monitored for 10 minutes. At the end of each cycle, the anti-FGFR3 antibody capture surface was regenerated using a 10 sec injection of 20 mM phosphoric acid. All binding kinetics experiments were performed at 25° C.
(§2) The specific SPR-Biacore sensorgrams were obtained by a double referencing procedure. The double referencing was performed by first subtracting the signal of each injection over a reference surface (anti-hFc) from the signal over the experimental surface (anti-hFc-captured anti-FGFR3 antibodies) thereby removing contributions from refractive index changes. In addition, running buffer injections were performed to allow subtraction of the signal changes resulting from the dissociation of captured antibodies from the coupled anti-hFc surface. Kinetic association (kₐ) and dissociation (kd) rate constants were determined by fitting the real-time sensorgrams to a 1:1 binding model using Scrubber v2.0c curve fitting software.

[4] = molecular target: B2; test: SPR (Biacore), captured mAb, 25 C
Method: as §1, §2

[5] = molecular target: T5, human FGFR3c expressed with a C-terminal myc-myc-hexahistidine tag (hFGFR3c.mmH) (human, UniProt P22607 23-375); test: SPR (Biacore), captured mAb, 25 C
T5 construct: monomeric; also called REGN3155; monomeric human FGFR3c
Method: as §1, §2

[6] = molecular target: T2, human FGFR3b expressed with a …; test: SPR (Biacore), captured mAb, 25 C
Method: as §1, §2

[7] = molecular target: T2, human FGFR3b expressed with a …; test: SPR (Biacore), recombinant human FGFR3 protein

T3 sequence (P05230 2-155 limits assumed, form in doubt): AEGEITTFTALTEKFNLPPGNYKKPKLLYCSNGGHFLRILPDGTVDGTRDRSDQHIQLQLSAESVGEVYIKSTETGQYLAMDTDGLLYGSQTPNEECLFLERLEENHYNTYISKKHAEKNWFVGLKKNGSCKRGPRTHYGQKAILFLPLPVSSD
T4 sequence (P09038 144-288, form in doubt): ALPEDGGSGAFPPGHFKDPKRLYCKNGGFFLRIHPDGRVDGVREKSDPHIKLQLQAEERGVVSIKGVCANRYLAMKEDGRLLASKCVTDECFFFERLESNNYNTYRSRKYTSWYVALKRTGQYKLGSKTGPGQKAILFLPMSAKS

EC50 [1] | EC50 [2] | t½ [3] | t½ [4] | t½ [5] | t½ [6] | Kd [7] | Binder
~0.4 nM | ~7 nM |  |  |  |  |  | B1
~4 nM |  |  |  |  |  |  | B2
 |  | 1.2 min | 745 min | 3.5 min | 5.5 min | 9.06 nM | B3
